Test results reported in patent US20160264649A1.

Key:
Experiment in all cases: cell-based or functional assay
[1] = biological target: HIV-1 Env of isolate VLGCA1 (subtype A) (HIV-1)
[2] = biological target: HIV-1 Env of isolate MGRM-F1-016 (subtype F) (HIV-1)
[3] = biological target: HIV-1 Env of isolate 92UG046 (subtype D) (HIV-1)
[4] = biological target: HIV-1 Env of isolate 92WR026 (subtype A) (HIV-1)
[5] = biological target: HIV-1 Env of pseudovirus isolate MGRM-G-019 (subtype G) (HIV-1)
[6] = biological target: HIV-1 Env of isolate 93IN905 (subtype C) (HIV-1)
[7] = biological target: HIV-1 Env of isolate TRO.11 (subtype B) (HIV-1)
[8] = biological target: HIV-1 JR-CSF Env (wild-type) (HIV-1) (UniProt P20871)
HIV-1 ADA Env (HIV-1) = biological target: HIV-1 ADA Env (HIV-1)
[9] = biological target: HIV-1 Env of isolate MGRM-F1-018 (subtype F) (HIV-1)
[10] = biological target: HIV-1 Env of isolate APV_6 (subtype B) (HIV-1)
[11] = biological target: HIV-1 Env of isolate 93TH305 (subtype B) (HIV-1)
[12] = biological target: HIV-1 Env of isolate MG RM-C-023 (subtype C) (HIV-1)
[13] = biological target: HIV-1 Env of isolate MGRM-D-026 (subtype D) (HIV-1)
[14] = biological target: HIV-1 Env of pseudovirus isolate MGRM-G-015 (subtype G) (HIV-1)
[15] = biological target: HIV-1 Env of isolate MGRM-D-005 (subtype D) (HIV-1)
[16] = biological target: HIV-1 Env of isolate MGRM-D-012 (subtype D) (HIV-1)
[17] = biological target: HIV-1 Env of isolate JRCSF (subtype B) (HIV-1) (UniProt P20871)
[18] = biological target: HIV-1 Env of isolate PVO.4 (subtype B) (HIV-1)
[19] = biological target: HIV-1 Env of isolate MGRM-D-014 (subtype D) (HIV-1)
[20] = biological target: HIV-1 Env of isolate 92UG031 (subtype A) (HIV-1)
[21] = biological target: HIV-1 Env of isolate MGRM-D-022 (subtype D) (HIV-1)
[22] = biological target: HIV-1 Env of isolate MGRM-F1-021 (subtype F) (HIV-1)
[23] = biological target: HIV-1 Env of isolate 92UG037 (subtype A) (HIV-1)
[24] = biological target: HIV-1 Env of isolate 92UG001 (subtype D) (HIV-1)
[25] = biological target: HIV-1 Env of isolate MGRM-D-021 (subtype D) (HIV-1)
[26] = biological target: HIV-1 Env of isolate 92 BR 020 (subtype B) (HIV-1)
[27] = biological target: HIV-1 Env of isolate MGRM-Chronic-B-011 (subtype B) (HIV-1)
[28] = biological target: HIV-1 Env of isolate MGRM-Chronic-B-003 (subtype B) (HIV-1)
[29] = biological target: HIV-1 Env of isolate MGRM-Chronic-B-020 (subtype B) (HIV-1)
[30] = biological target: HIV-1 Env of isolate MGRM-D-018 (subtype D) (HIV-1)
[31] = biological target: HIV-1 Env of isolate MGRM-Chronic-B-001 (subtype B) (HIV-1)
[32] = biological target: HIV-1 Env of isolate SF162 (subtype B) (HIV-1) (UniProt P19550)
[33] = biological target: HIV-1 Env of isolate 98CN006 (subtype CRF08_BC) (HIV-1)
[34] = biological target: HIV-1 Env of isolate CMU02 (subtype AE) (HIV-1)
[35] = biological target: HIV-1 Env of isolate NL43 (subtype B) (HIV-1)
[36] = biological target: HIV-1 Env of isolate MGRM-D-029 (subtype D) (HIV-1)
[37] = biological target: HIV-1 Env of pseudovirus isolate MGRM-G-025 (subtype G) (HIV-1)
[38] = biological target: HIV-1 Env of isolate MGRM-F1-014 (subtype F) (HIV-1)
[39] = biological target: HIV-1 Env of isolate MGRM-D-001 (subtype D) (HIV-1)
[40] = biological target: envelope of aMLV pseudovirus (negative control)
[41] = biological target: HIV-1 Env of isolate APV_13 (subtype B) (HIV-1)
[42] = biological target: HIV-1 Env of isolate MGRM-F1-023 (subtype F) (HIV-1)
[43] = biological target: HIV-1 Env of isolate MG RM-C-020 (subtype C) (HIV-1)
[44] = biological target: HIV-1 Env of isolate 92UG005 (subtype D) (HIV-1)
[45] = biological target: HIV-1 Env of isolate MGRM-F1-017 (subtype F) (HIV-1)
[46] = biological target: HIV-1 Env of isolate QH0692.42 (subtype B) (HIV-1)

1443_C16 (PG16) (TCN-116) (antibody), sequence (VH): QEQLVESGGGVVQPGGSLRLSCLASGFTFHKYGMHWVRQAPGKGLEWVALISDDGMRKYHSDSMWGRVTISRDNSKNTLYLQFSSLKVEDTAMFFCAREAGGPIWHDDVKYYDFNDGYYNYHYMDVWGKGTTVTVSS
1443_C16 (PG16) (TCN-116) (antibody), sequence (VL): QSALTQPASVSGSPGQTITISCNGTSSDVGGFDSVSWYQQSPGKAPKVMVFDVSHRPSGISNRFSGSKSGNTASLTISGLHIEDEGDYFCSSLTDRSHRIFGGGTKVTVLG

Substance: 1496_C09 (PG9) (TCN-109) (antibody)
- IC50 (pseudovirus neutralization) [1]: 0.069 µg/mL
- IC50 (pseudovirus neutralization) [2]: 0.518 µg/mL
- IC50 (neutralization) [3]: 1.86 µg/mL
- IC50 (pseudovirus neutralization) [4]: 0.164 µg/mL
- IC50 [5]: 14.6 µg/mL
- IC50 (µg/mL), pseudovirus neutralization [6]: 0.035 µg/mL
- IC50 (µg/mL), pseudovirus neutralization [7]: 16.9 µg/mL
- IC50, TZM-bl pseudovirus neutralization [8]: 0.006 µg/mL
- IC50, TZM-bl pseudovirus neutralization (HIV-1 ADA Env (HIV-1)): 0.2 µg/mL
- IC50 (pseudovirus neutralization) [9]: 0.019 µg/mL
- IC50 [10]: 0.181 µg/mL
- IC50 [11]: 8.12 µg/mL
- IC50 (µg/mL), pseudovirus neutralization [12]: 0.614 µg/mL
- IC50 (pseudovirus neutralization) [13]: 23.7 µg/mL
- IC50 [14]: 6.6 µg/mL
- IC50 (pseudovirus neutralization) [15]: 1.8 µg/mL
- IC50 (pseudovirus neutralization) [16]: 16.2 µg/mL
- IC50 (µg/mL), pseudovirus neutralization [17]: 0.003 µg/mL
- IC50 [18]: 24.8 µg/mL
- IC50 (pseudovirus neutralization) [19]: 0.023 µg/mL
- IC50 (pseudovirus neutralization) [20]: 3.6 µg/mL

Substance: VRC01 (antibody)
- IC50 (pseudovirus neutralization) [21]: > 50 µg/mL
- IC50 (pseudovirus neutralization) [1]: 0.163 µg/mL
- IC50 (pseudovirus neutralization) [2]: 0.517 µg/mL
- IC50 (pseudovirus neutralization) [22]: 0.039 µg/mL
- IC50 (neutralization) [3]: 12.7 µg/mL
- IC50 (pseudovirus neutralization) [23]: 0.245 µg/mL
- IC50 (neutralization) [24]: 1.16 µg/mL
- IC50 (pseudovirus neutralization) [25]: 33.4 µg/mL
- IC50 [26]: 0.29 µg/mL
- IC50 [27]: 0.587 µg/mL
- IC50 [5]: 0.06 µg/mL
- IC50 [28]: 0.1 µg/mL
- IC50 [29]: 0.424 µg/mL
- IC50 [6]: 0.138 µg/mL
- IC50 [7]: 0.186 µg/mL
- IC50 (pseudovirus neutralization) [30]: > 50 µg/mL
- IC50 [31]: 0.066 µg/mL
- IC50 [32]: 0.421 µg/mL
- IC50 (neutralization) [33]: 0.644 µg/mL
- IC50 (pseudovirus neutralization) [34]: 0.515 µg/mL
- IC50 [35]: 0.1 µg/mL
- IC50 (pseudovirus neutralization) [9]: 0.032 µg/mL
- IC50 (pseudovirus neutralization) [36]: 3.22 µg/mL
- IC50 [10]: 1.81 µg/mL
- IC50 [37]: 0.292 µg/mL
- IC50 (pseudovirus neutralization) [38]: 0.056 µg/mL
- IC50 (pseudovirus neutralization) [39]: > 50 µg/mL
- IC50 [11]: 0.243 µg/mL
- IC50 [12]: 0.077 µg/mL
- IC50 [40]: > 50 µg/mL
- IC50 [41]: 0.657 µg/mL
- IC50 (pseudovirus neutralization) [42]: 0.392 µg/mL
- IC50 (pseudovirus neutralization) [13]: 0.435 µg/mL
- IC50 [43]: 0.396 µg/mL
- IC50 (neutralization) [44]: 0.576 µg/mL
- IC50 [14]: 0.548 µg/mL
- IC50 (pseudovirus neutralization) [15]: > 50 µg/mL
- IC50 (pseudovirus neutralization) [16]: 0.216 µg/mL
- IC50 [17]: 0.164 µg/mL
- IC50 (pseudovirus neutralization) [45]: 1.08 µg/mL
- IC50 [46]: 1.19 µg/mL
- IC50 [18]: 0.218 µg/mL
- IC50 (pseudovirus neutralization) [19]: 0.332 µg/mL
- IC50 (pseudovirus neutralization) [20]: 0.469 µg/mL

Substance: 1443_C16 (PG16) (TCN-116) (antibody)
- IC50, TZM-bl pseudovirus neutralization [8]: 0.001 µg/mL
- IC50, TZM-bl pseudovirus neutralization (HIV-1 ADA Env (HIV-1)): 0.004 µg/mL

Substance: PGV04 (antibody)
- IC50 (pseudovirus neutralization) [21]: > 50 µg/mL
- IC50 (pseudovirus neutralization) [1]: 0.024 µg/mL
- IC50 (pseudovirus neutralization) [2]: 0.268 µg/mL
- IC50 (pseudovirus neutralization) [22]: 0.031 µg/mL
- IC50 (neutralization) [3]: 22.4 µg/mL
- IC50 (pseudovirus neutralization) [4]: 0.14 µg/mL
- IC50 (pseudovirus neutralization) [23]: 0.145 µg/mL
- IC50 (neutralization) [24]: 0.553 µg/mL
- IC50 (pseudovirus neutralization) [25]: > 50 µg/mL
- IC50 [26]: 0.25 µg/mL
- IC50 [27]: 0.497 µg/mL
- IC50 [5]: 0.027 µg/mL
- IC50 [28]: 0.258 µg/mL
- IC50 [29]: 1.26 µg/mL
- IC50 (µg/mL), pseudovirus neutralization [6]: 0.332 µg/mL
- IC50 (µg/mL), pseudovirus neutralization [7]: 0.121 µg/mL
- IC50 (pseudovirus neutralization) [30]: 17.5 µg/mL
- IC50 [31]: 0.048 µg/mL
- IC50 (µg/mL), pseudovirus neutralization [32]: 0.028 µg/mL
- IC50 (neutralization) [33]: 1.32 µg/mL
- IC50 (pseudovirus neutralization) [34]: 1.24 µg/mL
- IC50 (µg/mL), pseudovirus neutralization [35]: 0.028 µg/mL
- IC50 (pseudovirus neutralization) [9]: 0.027 µg/mL
- IC50 (pseudovirus neutralization) [36]: 1.56 µg/mL
- IC50 [10]: 24.2 µg/mL
- IC50 [37]: 1.61 µg/mL
- IC50 (pseudovirus neutralization) [38]: 0.02 µg/mL
- IC50 (pseudovirus neutralization) [39]: > 50 µg/mL
- IC50 [11]: 0.255 µg/mL
- IC50 (µg/mL), pseudovirus neutralization [12]: 0.128 µg/mL
- IC50 [40]: > 50 µg/mL
- IC50 [41]: 1.23 µg/mL
- IC50 (pseudovirus neutralization) [42]: 0.171 µg/mL
- IC50 (pseudovirus neutralization) [13]: 1.76 µg/mL
- IC50 (µg/mL), pseudovirus neutralization [43]: 0.112 µg/mL
- IC50 (neutralization) [44]: 0.44 µg/mL
- IC50 [14]: 0.333 µg/mL
- IC50 (pseudovirus neutralization) [15]: > 50 µg/mL
- IC50 (pseudovirus neutralization) [16]: 0.125 µg/mL
- IC50 (µg/mL), pseudovirus neutralization [17]: 0.078 µg/mL
- IC50 (pseudovirus neutralization) [45]: 2.38 µg/mL
- IC50 [46]: 1.9 µg/mL
- IC50 [18]: 0.454 µg/mL
- IC50 (pseudovirus neutralization) [19]: 0.194 µg/mL
- IC50 (pseudovirus neutralization) [20]: 4.46 µg/mL
